Earlier results, collected in paper PMC8298264, “Function of cofactor Akirin2 in the regulation of gene expression in model human neutrophil-like HL60 cells” (Bioscience Reports, 2021).

Tested on: AKR2
Parameters: key: A: Very high confidence in the interaction; B: High confidence in the interaction; D: Moderate confidence in the interaction
Conditions: AKR2-interacting proteins (IPs), physical interactome; ref https://doi.org/10.3390/vaccines8010077; cited from earlier work
From the text: Supplement BSR-2021-1120_supp1.zip/BSR-2021-1120_suppST4.xlsx, sheet "BPs related to AKR2-IPs" | column: Predicted Biological Score (PBS)

B1: UBAC1 (protein, UniProt Q9BSL1 1-405, looked up)
Ubiquitin-associated …: MFVQEEKIFAGKVLRLHICASDGAEWLEEATEDTSVEKLKERCLKHCAHGSLEDPKSITHHKLIHAASERVLSDARTILEENIQDQDVLLLIKKRAPSPLPKMADVSAEEKKKQDQKAPDKEAILRATANLPSYNMDRAAVQTNMRDFQTELRKILVSLIEVAQKLLALNPDAVELFKKANAMLDEDEDERVDEAALRQLTEMGFPENRATKALQLNHMSVPQAMEWLIEHAEDPTIDTPLPGQAPPEAEGATAAASEAAAGASATDEEARDELTEIFKKIRRKREFRADARAVISLMEMGFDEKEVIDALRVNNNQQNAACEWLLGDRKPSPEELDKGIDPDSPLFQAILDNPVVQLGLTNPKTLLAFEDMLENPLNSTQWMNDPETGPVMLQISRIFQTLNRT
  Predicted Biological Score (PBS): A
